How the values were obtained:
hLRRC33-proTGFβ1 [1] = molecular target: T1, hLRRC33-proTGFβ1 (human, UniProt Q86YC3 19-650; P01137 30-390, limits assumed); test: SPR (Biacore), Fab; affinity relative to Ref
T1 construct: LLC as m1; Same id used for the cell-surface complex in reporter assays; also called human LRRC33-proTGFβ1 complex; LRRC33-ProTGFb1

hLRRC33-proTGFβ1 [2] = molecular target: T1, hLRRC33-proTGFβ1; test: SPR (Biacore), Fab
mGARP-proTGFβ1 = molecular target: T2, mGARP-proTGFβ1 (mouse); test: SPR (Biacore), Fab
T2 construct: Murine LLC; also called murine GARP-proTGFβ1 complex
T2 sequence (G3XA59 18-663, chain 1 of 2): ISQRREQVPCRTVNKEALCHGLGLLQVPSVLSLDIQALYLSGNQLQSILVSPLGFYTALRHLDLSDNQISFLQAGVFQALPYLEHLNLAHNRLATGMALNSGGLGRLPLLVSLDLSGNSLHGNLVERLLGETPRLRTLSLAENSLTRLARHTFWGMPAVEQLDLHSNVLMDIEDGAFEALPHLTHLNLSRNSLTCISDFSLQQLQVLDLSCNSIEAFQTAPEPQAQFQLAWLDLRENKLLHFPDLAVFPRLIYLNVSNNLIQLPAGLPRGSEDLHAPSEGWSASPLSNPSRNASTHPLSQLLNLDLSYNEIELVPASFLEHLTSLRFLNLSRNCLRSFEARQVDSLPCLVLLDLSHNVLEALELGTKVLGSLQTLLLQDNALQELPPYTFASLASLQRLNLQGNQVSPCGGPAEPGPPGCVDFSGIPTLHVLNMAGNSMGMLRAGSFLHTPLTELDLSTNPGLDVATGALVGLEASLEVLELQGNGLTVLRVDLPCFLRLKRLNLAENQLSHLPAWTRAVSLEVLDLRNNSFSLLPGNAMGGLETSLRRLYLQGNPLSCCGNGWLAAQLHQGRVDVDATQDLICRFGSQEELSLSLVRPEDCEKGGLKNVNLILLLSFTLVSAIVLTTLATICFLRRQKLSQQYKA
T2 sequence (P04202 30-390, chain 2 of 2, further chain): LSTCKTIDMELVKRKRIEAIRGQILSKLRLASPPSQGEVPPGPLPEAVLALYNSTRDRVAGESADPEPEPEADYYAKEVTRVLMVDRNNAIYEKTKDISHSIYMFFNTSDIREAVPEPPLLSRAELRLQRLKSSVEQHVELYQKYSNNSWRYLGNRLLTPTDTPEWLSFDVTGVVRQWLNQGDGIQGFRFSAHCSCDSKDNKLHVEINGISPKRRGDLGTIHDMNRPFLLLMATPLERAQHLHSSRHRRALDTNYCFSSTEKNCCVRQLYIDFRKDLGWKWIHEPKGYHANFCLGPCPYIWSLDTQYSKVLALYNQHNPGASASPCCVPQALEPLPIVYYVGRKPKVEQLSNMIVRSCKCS
Experimental: (§1) Surface plasmon resonance (SPR) was used to measure binding kinetics using a BIACORE® system. […] Experiments were carried out with eight types of LLCs, namely, hLTBP1-proTGFβ1, mLTBP1-proTGFβ1, hLTBP3-proTGFβ1, mLTBP3-proTGFβ1, hGARP-proTGFβ1, mGARP-proTGFβ1, hLRRC33-proTGFβ1 and mLRRC33-proTGFβ1.
(§2) In vitro binding kinetics (on/off rates) were measured in Biacore-based assays and affinities were determined against all four known LLCs using both human and murine counterparts for each. Based on the association rate and dissociation rate, KD was calculated for each. In addition, relative affinities, as compared to the reference antibody as a benchmark, were calculated and expressed as “fold difference” relative to the reference antibody.
(§3) A BIACORE® system was employed to determine the monovalent binding affinity and the kinetic parameters for antigen binding of test antibodies. The binding kinetics were evaluated by surface plasmon resonance using Biacore 8K (GE Healthcare). A Biotin CAP sensor chip was used to capture the biotinylated antigens. […] Multi-cycle kinetics was employed where each analyte concentration was injected in a separate cycle and the sensor chip surface was regenerated after each cycle. All the assays were carried out in freshly prepared 1×HBS-EP+buffer (10 mM HEPES, 150 mM NaCl, 3 mM EDTA, 0.05% Tween20, pH 7.4). Data for all the analyte concentrations for each interaction were fit globally to a 1:1 binding model to obtain the kinetic parameters. The Sensorgram for 0 nM analyte concentration was used as reference.

hLTBP3-proTGFβ1 [3] = molecular target: T3, hLTBP3-proTGFβ1 (human, UniProt Q9NS15 44-1303; P01137 30-390, limits assumed); test: SPR (Biacore), Fab
T3 construct: LLC as m1; Same id used for the cell-made complex in reporter assays; also called human LTBP3-proTGFβ1 complex; LTBP3-ProTGFb1
Experimental: as §1, §2, §3

hGARP-proTGFβ1 [4] = molecular target: T4, hGARP-proTGFβ1 (human, UniProt Q14392 18-627; P01137 30-390, limits assumed); test: SPR (Biacore), Fab
T4 construct: LLC as m1; Same id used for the cell-surface complex in reporter assays; also called human GARP-proTGFβ1 complex; GARP-ProTGFb1
T4 sequence (Q14392 18-627 limits assumed, chain 1 of 2): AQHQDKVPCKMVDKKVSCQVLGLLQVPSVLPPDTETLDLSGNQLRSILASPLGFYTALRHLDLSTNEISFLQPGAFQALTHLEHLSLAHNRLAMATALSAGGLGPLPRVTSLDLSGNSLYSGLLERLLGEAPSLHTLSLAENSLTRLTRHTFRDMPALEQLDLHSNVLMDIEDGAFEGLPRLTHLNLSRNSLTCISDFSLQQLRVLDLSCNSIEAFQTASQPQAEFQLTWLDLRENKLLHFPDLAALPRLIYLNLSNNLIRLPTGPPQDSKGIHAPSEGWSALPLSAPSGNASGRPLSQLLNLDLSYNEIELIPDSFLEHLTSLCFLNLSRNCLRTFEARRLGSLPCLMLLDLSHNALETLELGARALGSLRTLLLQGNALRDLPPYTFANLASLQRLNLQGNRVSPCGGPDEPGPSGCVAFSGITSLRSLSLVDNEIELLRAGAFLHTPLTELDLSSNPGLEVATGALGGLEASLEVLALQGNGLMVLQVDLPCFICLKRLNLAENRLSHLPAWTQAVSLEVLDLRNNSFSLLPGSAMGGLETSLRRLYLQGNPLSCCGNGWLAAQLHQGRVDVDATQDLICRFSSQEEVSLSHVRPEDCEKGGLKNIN
T4 sequence (P01137 30-390 limits assumed, chain 2 of 2): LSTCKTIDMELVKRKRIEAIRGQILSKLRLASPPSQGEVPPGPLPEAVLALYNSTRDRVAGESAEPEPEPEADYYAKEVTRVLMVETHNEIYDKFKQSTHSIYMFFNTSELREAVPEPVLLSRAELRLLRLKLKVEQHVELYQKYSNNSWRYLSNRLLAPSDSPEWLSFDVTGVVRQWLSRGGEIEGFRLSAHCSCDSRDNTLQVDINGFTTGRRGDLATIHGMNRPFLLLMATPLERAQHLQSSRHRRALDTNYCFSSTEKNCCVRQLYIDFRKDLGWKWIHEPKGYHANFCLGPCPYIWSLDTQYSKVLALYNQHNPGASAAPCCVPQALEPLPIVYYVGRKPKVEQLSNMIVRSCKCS
Experimental: as §1, §2, §3

mLTBP1-proTGFβ1 [5] = molecular target: T5, mLTBP1-proTGFβ1 (mouse); test: SPR (Biacore), Fab
T5 construct: Murine LLC; also called murine LTBP1-proTGFβ1 complex
Experimental: as §1, §2, §3

mLTBP3-proTGFβ1 [6] = molecular target: T6, mLTBP3-proTGFβ1 (mouse); test: SPR (Biacore), Fab
T6 construct: Murine LLC; also called murine LTBP3-proTGFβ1 complex
T6 sequence (Q61810 39-1253, chain 1 of 2): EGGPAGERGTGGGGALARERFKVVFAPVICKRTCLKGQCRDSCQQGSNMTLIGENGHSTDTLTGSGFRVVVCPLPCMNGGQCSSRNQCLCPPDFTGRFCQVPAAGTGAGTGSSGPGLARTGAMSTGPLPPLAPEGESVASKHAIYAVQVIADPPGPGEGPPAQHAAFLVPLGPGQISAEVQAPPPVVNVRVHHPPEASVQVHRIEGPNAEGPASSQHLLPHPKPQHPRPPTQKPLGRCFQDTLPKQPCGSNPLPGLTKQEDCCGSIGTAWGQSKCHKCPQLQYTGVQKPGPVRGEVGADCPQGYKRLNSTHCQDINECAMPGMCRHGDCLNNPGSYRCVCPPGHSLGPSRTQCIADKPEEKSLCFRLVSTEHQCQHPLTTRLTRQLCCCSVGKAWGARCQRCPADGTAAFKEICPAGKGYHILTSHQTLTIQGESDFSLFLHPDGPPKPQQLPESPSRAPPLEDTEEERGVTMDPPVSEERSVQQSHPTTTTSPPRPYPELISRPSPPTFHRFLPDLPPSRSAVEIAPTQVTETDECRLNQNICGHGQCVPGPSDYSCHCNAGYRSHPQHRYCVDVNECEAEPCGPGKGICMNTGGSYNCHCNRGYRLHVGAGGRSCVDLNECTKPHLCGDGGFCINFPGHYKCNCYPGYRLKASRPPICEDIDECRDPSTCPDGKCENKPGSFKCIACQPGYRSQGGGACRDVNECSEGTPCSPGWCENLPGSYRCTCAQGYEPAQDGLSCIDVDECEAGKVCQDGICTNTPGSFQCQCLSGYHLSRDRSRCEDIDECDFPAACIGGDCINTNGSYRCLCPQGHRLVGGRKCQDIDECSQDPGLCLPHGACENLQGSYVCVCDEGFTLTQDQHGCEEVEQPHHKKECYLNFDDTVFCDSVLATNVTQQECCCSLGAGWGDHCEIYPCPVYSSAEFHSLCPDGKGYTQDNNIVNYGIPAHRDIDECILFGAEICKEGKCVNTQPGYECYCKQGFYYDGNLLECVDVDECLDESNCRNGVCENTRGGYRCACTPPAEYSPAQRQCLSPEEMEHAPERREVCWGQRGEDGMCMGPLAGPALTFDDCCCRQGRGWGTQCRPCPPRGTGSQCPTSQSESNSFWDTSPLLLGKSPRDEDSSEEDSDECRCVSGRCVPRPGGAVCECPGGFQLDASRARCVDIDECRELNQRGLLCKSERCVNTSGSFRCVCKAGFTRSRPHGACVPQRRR
T6 sequence (P04202 30-390, chain 2 of 2, further chain): as the sequence (P04202 30-390, chain 2 of 2, further chain) above
Experimental: as §1, §2, §3

hLTBP1-proTGFβ1 [7] = molecular target: T7, hLTBP1-proTGFβ1 (human, UniProt Q14766 347-1721; P01137 30-390, limits assumed); test: SPR (Biacore), Fab
T7 construct: Large latent complex (LLC): proTGFβ1 dimer disulfide-linked to one presenting molecule; recombinant, purified, biotinylated in BLI/SPR; The same id is used for the complex made by transfected cells in the reporter assays; also called human LTBP1-proTGFβ1 complex; LTBP1-ProTGFb1
Experimental: as §1, §2, §3

[8] = molecular target: endogenous LTBP-proTGFβ1 of human LN229 cells (human, UniProt P01137 30-390); test: cell-based or functional assay
endogenous LTBP-proTGFβ1 of human LN229 cells, sequence (P01137 30-390): as the sequence (P01137 30-390 limits assumed, chain 2 of 2) above

hLTBP3-proTGFβ1 [9] = molecular target: T3, hLTBP3-proTGFβ1; test: BLI (Octet), Fab in solution, biotinylated antigen immobilised
Experimental: (§4) The table below exemplifies binding kinetics of the listed antibodies (e.g., Fabs) obtained by OCTET®-based binding assays. The experiments were conducted with immobilized, biotinylated antigen and Fab fragments (e.g., test antibodies) in solution.

hGARP-proTGFβ1 [10] = molecular target: T4, hGARP-proTGFβ1; test: as above
Experimental: as §4

hLTBP1-proTGFβ1 [11] = molecular target: T7, hLTBP1-proTGFβ1; test: as above
Experimental: as §4

mLRRC33-proTGFβ1 = mLRRC33-proTGFβ1 (murine, UniProt Q8BMT4 20-651); test: SPR (Biacore), Fab
mLRRC33-proTGFβ1, sequence (Q8BMT4 20-651): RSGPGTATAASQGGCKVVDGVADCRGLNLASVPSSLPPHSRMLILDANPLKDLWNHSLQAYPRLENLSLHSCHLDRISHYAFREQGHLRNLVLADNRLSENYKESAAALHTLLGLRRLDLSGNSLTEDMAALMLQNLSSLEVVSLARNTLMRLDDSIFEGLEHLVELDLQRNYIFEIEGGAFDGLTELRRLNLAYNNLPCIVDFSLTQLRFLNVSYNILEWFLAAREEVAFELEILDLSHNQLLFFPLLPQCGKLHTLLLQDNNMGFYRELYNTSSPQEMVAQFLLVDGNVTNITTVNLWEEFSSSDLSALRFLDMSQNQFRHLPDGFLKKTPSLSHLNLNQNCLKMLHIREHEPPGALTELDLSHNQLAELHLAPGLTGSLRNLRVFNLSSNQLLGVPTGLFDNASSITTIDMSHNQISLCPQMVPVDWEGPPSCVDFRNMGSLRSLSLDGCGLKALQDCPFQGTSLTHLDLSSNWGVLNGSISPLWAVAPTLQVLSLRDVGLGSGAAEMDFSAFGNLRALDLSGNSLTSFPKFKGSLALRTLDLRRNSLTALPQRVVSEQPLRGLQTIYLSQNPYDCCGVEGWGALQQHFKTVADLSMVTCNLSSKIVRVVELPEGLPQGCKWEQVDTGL

hLTBP3-proTGFβ1 [12] = molecular target: T3, hLTBP3-proTGFβ1; test: SPR (Biacore), Fab; affinity relative to Ref
Experimental: as §1, §2, §3

hGARP-proTGFβ1 [13] = molecular target: T4, hGARP-proTGFβ1; test: SPR (Biacore), Fab; affinity relative to Ref
Experimental: as §1, §2, §3

mLTBP1-proTGFβ1 [14] = molecular target: T5, mLTBP1-proTGFβ1; test: SPR (Biacore), Fab; affinity relative to Ref
Experimental: as §1, §2, §3

mLTBP3-proTGFβ1 [15] = molecular target: T6, mLTBP3-proTGFβ1; test: SPR (Biacore), Fab; affinity relative to Ref
Experimental: as §1, §2, §3

hLTBP1-proTGFβ1 [16] = molecular target: T7, hLTBP1-proTGFβ1; test: SPR (Biacore), Fab; affinity relative to Ref
Experimental: as §1, §2, §3

T1 sequence (Q86YC3 19-650 limits assumed, chain 1 of 2): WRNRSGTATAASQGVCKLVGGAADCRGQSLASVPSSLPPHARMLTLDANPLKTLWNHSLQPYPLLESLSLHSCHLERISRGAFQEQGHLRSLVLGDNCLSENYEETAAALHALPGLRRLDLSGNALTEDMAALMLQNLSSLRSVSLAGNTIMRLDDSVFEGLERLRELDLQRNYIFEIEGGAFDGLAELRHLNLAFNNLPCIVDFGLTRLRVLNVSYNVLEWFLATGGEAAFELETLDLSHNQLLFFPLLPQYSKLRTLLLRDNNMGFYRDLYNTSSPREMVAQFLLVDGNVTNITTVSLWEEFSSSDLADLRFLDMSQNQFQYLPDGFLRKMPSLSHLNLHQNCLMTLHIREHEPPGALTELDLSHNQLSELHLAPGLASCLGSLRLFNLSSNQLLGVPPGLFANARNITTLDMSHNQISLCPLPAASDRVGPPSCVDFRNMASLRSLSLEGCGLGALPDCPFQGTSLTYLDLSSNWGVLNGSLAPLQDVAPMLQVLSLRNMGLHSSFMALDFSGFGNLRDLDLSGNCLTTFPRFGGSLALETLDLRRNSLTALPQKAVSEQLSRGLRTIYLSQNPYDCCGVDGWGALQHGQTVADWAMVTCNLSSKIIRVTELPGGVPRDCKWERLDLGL
T1 sequence (P01137 30-390 limits assumed, chain 2 of 2): as the sequence (P01137 30-390 limits assumed, chain 2 of 2) above

B1: Ab46 Fab (Fab, V domains shown)
VH: EVQLLESGGGLVQPGGSLRLSCAASGFTFADYAMTWVRQAPGKGLEWVSAISGSGAATYFADSVKGRFTISRDNSKNTLYLQMNSLRAEDTAVYYCARVSSGHWDYDYWGQGTLVTVSS
VL: DIQLTQSPSSLSASVGDRVTITCRASQSISSYLNWYQQKPGKAPKLLIYAASGLESGVPSRFSGSGSGTDFTLTISSLQPEDFATYYCQQTYGVPLTFGGGTKVEIK
notes: Fab fragment
In the case of B1, the Fold difference (hLRRC33-proTGFβ1 [1]) is reported as 118 fold, the Kd (hLRRC33-proTGFβ1 [2]) is reported as 0.0841 nM and the koff (hLRRC33-proTGFβ1 [2]) is reported as 0.000128 s⁻¹. The kon (hLRRC33-proTGFβ1 [2]) was 1.52e+06 M⁻¹ s⁻¹, the Kd (mGARP-proTGFβ1) was 0.274 nM and the koff (mGARP-proTGFβ1) was 0.000278 s⁻¹. For the same binder, the kon (mGARP-proTGFβ1) was 1.02e+06 M⁻¹ s⁻¹, the Kd (hLTBP3-proTGFβ1 [3]) was 0.127 nM and the koff (hLTBP3-proTGFβ1 [3]) was 0.000128 s⁻¹. The kon (hLTBP3-proTGFβ1 [3]) was 1e+06 M⁻¹ s⁻¹, the Kd (hGARP-proTGFβ1 [4]) was 0.23 nM and the koff (hGARP-proTGFβ1 [4]) was 0.000222 s⁻¹. The kon (hGARP-proTGFβ1 [4]) was 965000 M⁻¹ s⁻¹, the Kd (mLTBP1-proTGFβ1 [5]) was 0.0534 nM and the koff (mLTBP1-proTGFβ1 [5]) was 9.87e-05 s⁻¹. The kon (mLTBP1-proTGFβ1 [5]) was 1.85e+06 M⁻¹ s⁻¹, the Kd (mLTBP3-proTGFβ1 [6]) was 0.0956 nM and the koff (mLTBP3-proTGFβ1 [6]) was 0.000115 s⁻¹. It also gave a kon (mLTBP3-proTGFβ1 [6]) of 1.2e+06 M⁻¹ s⁻¹, a Kd (hLTBP1-proTGFβ1 [7]) of 0.0502 nM and a koff (hLTBP1-proTGFβ1 [7]) of 8.81e-05 s⁻¹. For the same binder, the kon (hLTBP1-proTGFβ1 [7]) was 1.75e+06 M⁻¹ s⁻¹, the “fAb IC50” value [8] was 0.723 nM and the koff (hLTBP3-proTGFβ1 [9]) was 0.000438 s⁻¹. For the same binder, the kon (hLTBP3-proTGFβ1 [9]) was 619000 M⁻¹ s⁻¹, the koff (hGARP-proTGFβ1 [10]) was 0.00029 s⁻¹ and the kon (hGARP-proTGFβ1 [10]) was 703000 M⁻¹ s⁻¹. It also gave a koff (hLTBP1-proTGFβ1 [11]) of 4.98e-05 s⁻¹, a kon (hLTBP1-proTGFβ1 [11]) of 703000 M⁻¹ s⁻¹ and a Kd (mLRRC33-proTGFβ1) of 0.0892 nM. For the same binder, the koff (mLRRC33-proTGFβ1) was 0.000112 s⁻¹, the kon (mLRRC33-proTGFβ1) was 1.26e+06 M⁻¹ s⁻¹ and the Fold difference (hLTBP3-proTGFβ1 [12]) was 72 fold. It also gave a Fold difference (hGARP-proTGFβ1 [13]) of 53 fold, a Fold difference (mLTBP1-proTGFβ1 [14]) of 123 fold and a Fold difference (mLTBP3-proTGFβ1 [15]) of 91 fold. The Fold difference (hLTBP1-proTGFβ1 [16]) was 134 fold.

— patent publication US20240294623A1 (SCHOLAR ROCK, published 2024)
